The values that follow are results of earlier work, collected in article PMC4019842.

In general, Kd refers to the constant that tells how readily two partners part at equilibrium.

This data set concerns the target holo-transferrin (Homo sapiens) (UniProt P02787).
Sequence of UniProt P02787 (P02787 20-698): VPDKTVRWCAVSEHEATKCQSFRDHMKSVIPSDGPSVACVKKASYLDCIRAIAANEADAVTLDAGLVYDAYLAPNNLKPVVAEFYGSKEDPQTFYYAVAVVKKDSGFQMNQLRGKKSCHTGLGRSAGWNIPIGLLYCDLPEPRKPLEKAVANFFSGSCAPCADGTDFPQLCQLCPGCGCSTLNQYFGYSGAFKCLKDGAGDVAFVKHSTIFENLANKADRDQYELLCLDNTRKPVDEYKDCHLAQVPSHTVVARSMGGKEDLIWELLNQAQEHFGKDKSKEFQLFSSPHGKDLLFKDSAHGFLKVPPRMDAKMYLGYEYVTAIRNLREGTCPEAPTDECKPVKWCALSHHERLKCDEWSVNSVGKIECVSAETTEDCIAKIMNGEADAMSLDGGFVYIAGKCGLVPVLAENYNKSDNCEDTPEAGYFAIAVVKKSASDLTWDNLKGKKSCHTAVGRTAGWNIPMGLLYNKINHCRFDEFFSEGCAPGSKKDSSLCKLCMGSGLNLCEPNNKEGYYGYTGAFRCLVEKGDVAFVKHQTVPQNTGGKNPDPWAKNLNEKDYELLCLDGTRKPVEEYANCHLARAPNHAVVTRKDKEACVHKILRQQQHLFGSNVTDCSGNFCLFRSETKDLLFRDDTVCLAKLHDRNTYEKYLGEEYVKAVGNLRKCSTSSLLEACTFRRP

For the substance TFR2 (from UniProt Q9UP52), the dissociation constant Kd is 0.03 µM.
